Results: publication PMC5745793 (2017)
Like-named read-outs stand apart in the source and are kept apart here. Values belong to the molecule of their own block, whether it stands above or below them.

Experiments:
CCR3 (Homo sapiens) [1] = target: CCR3 (Homo sapiens) (UniProt P51677); settings: cited from earlier work
CCR3 (Homo sapiens) [2] = target: CCR3 (Homo sapiens) (UniProt P51677); settings: cited from earlier work; remark: listed apart in the source
CCR3 = target: T1, CCR3 (Homo sapiens, UniProt P51677); assay: QCM
T1 chain: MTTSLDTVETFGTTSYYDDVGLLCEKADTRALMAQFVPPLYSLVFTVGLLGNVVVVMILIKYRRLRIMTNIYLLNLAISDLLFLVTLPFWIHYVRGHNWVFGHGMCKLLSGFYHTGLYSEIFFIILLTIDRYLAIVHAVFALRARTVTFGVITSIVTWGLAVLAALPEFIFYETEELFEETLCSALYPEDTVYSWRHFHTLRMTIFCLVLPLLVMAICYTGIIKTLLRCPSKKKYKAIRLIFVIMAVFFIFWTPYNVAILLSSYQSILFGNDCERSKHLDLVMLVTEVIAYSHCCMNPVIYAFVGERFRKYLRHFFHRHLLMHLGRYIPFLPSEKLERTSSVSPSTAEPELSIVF

Molecule: CCL24 (from UniProt O00175)
Kd (CCR3 (Homo sapiens) [1]): 300 nM

Molecule: CCL11 (from UniProt P51671)
Kd (CCR3 (Homo sapiens) [2]): 370 nM

Kd (CCR3): 120 nM
B1: CCL8 (protein)
chain: QPDSVSIPITCCFNVINRKIPIQRLESYTRITNIQCPKEAVIFKTKRGKEVCADPKERWVRDSMKHLDQIFQNLKP
